These results are taken from PMC7801515.

The target of the test is P2C-1F11 monoclonal antibody (human). Kind of test: SPR.

The substance “SARS-CoV-2 receptor-binding domain (RBD), residues Arg319 to Lys529 (from UniProt P0DTC2 319-529) (domain or fragment)” registered a Kd of 1.72 nM.
